According to the supplement of paper PMC10219994:
± gives the standard deviation of the averaged measurements.

B1: library; a variant is named by its letters at N, in order (parent)
chain: GAGACCGCAACTGAAAAGTTGTGGNNNNNATAGTGAGTCGCTGCCTGCAAAGACACAACT

Variants of: B1
Experiment: ligation selection enrichment (abundance after / before one-round selection) (fold); higher = more template-directed ligation activity
Settings: with T7Psub CACGGAUGCUAAUACGACUCACUAUA; MgCl2 25 mM; 42 °C; 4 h; pH 8.5
Procedure: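 Lib-N5 ligase ribozyme library: five randomized core nucleotides (including the GGA motif of N8-1) within the fixed N8-1 ribozyme flanks, transcribed by T7 RNA polymerase with a 5'-triphosphate. The library (0.75 uM) was reacted with substrate T7Psub (6 uM) in 50 mM EPPS pH 8.5 with 25 mM MgCl2 at 42 C for 4 h. Ligated products were PAGE-purified, reverse transcribed and MiSeq sequenced; enrichment = abundance after selection / abundance before selection, with two independent replicates. The full transcript is built from the printed template flanks.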

AAGTT and AATGT are within error of each other in ligation selection enrichment: 0.257 ± 0.055 for the first, 0.153 ± 0.076 for the second.

Going from AATGA to AATGC, the ligation selection enrichment falls from 0.528 ± 0.046 to 0.198 ± 0.015.

Compared with AATGG, TCGAC is higher in ligation selection enrichment: 0.467 ± 0.097 for the first, 1.74 ± 0.36 for the second.

Compared with TCGAA, TCGAT is higher in ligation selection enrichment: 0.975 ± 0.19 for the first, 13.3 ± 3.8 for the second.

First: TCGAG
Second: CCGCG
The ligation selection enrichment of the first is higher: 0.7035 ± 0.0067 for the first, 0.499 ± 0.059 for the second.

First: CCGCA
Second: CCGCT
The ligation selection enrichment of the first is lower: 0.206 ± 0.0029 for the first, 0.4 ± 0.15 for the second.

First: CCGCC
Second: GCGAT
The ligation selection enrichment of the first is lower: 0.148 ± 0.0024 for the first, 21.9 ± 4.1 for the second.

GCGAA and GCGAG are within error of each other in ligation selection enrichment: 1.35 ± 0.24 for the first, 1.37 ± 0.06 for the second.

Going from GCGAC to TCCTT, the ligation selection enrichment falls from 1.92 ± 0.12 to 0.232 ± 0.029.

Compared with TCCTG, TCCTC is lower in ligation selection enrichment: 0.246 ± 0.011 for the first, 0.107 ± 0.011 for the second.

TCCTA and CAGCA are within error of each other in ligation selection enrichment: 0.147 ± 0.063 for the first, 0.206 ± 0.024 for the second.

CAGCG and CAGCT are within error of each other in ligation selection enrichment: 0.535 ± 0.21 for the first, 0.542 ± 0.24 for the second.

CAGCC and TATAA are within error of each other in ligation selection enrichment: 0.14 ± 0.0077 for the first, 0.182 ± 0.077 for the second.

Compared with TATAC, TATAG is higher in ligation selection enrichment: 0.22 ± 0.0018 for the first, 0.995 ± 0.016 for the second.

TATAT and GCGCT are within error of each other in ligation selection enrichment: 0.817 ± 0.18 for the first, 0.519 ± 0.19 for the second.

Going from GCGCC to GCGCA, the ligation selection enrichment rises from 0.191 ± 0.017 to 0.289 ± 0.025.

Compared with GCGCG, TAGAT is higher in ligation selection enrichment: 0.558 ± 0.0074 for the first, 15.6 ± 3.6 for the second.

First: TAGAG
Second: TAGAA
The ligation selection enrichment of the first is higher: 0.755 ± 0.058 for the first, 0.484 ± 0.075 for the second.

Going from TAGAC to GAGAA, the ligation selection enrichment falls from 1.03 ± 0.29 to 0.508 ± 0.036.

Going from GAGAT to GAGAG, the ligation selection enrichment falls from 11.7 ± 2.6 to 0.663 ± 0.061.

First: GAGAC
Second: GATAT
The ligation selection enrichment of the first is higher: 0.765 ± 0.031 for the first, 0.446 ± 0.11 for the second.

Compared with GATAG, GATAA is lower in ligation selection enrichment: 0.538 ± 0.016 for the first, 0.189 ± 0.036 for the second.

GATAC and GAGGT are within error of each other in ligation selection enrichment: 0.188 ± 0.058 for the first, 0.143 ± 0.025 for the second.

Compared with GAGGA, GAGGC is lower in ligation selection enrichment: 0.501 ± 0.11 for the first, 0.17 ± 0.017 for the second.

Going from GAGGG to CCCAT, the ligation selection enrichment rises from 0.345 ± 0.011 to 0.674 ± 0.13.

Compared with CCCAA, CCCAC is higher in ligation selection enrichment: 0.134 ± 0.007 for the first, 0.168 ± 0.017 for the second.

Compared with CCCAG, CATCA is higher in ligation selection enrichment: 0.145 ± 0.0045 for the first, 0.288 ± 0.025 for the second.

First: CATCC
Second: CATCG
The ligation selection enrichment of the first is lower: 0.247 ± 0.012 for the first, 1.33 ± 0.14 for the second.

CATCT and TACCG are within error of each other in ligation selection enrichment: 0.541 ± 0.19 for the first, 0.574 ± 0.048 for the second.

TACCT and AAGGA are within error of each other in ligation selection enrichment: 0.599 ± 0.22 for the first, 0.431 ± 0.013 for the second.

Going from AAGGG to AAGGC, the ligation selection enrichment falls from 0.331 ± 0.0073 to 0.146 ± 0.015.

AAGGT and TCATT are within error of each other in ligation selection enrichment: 0.203 ± 0.15 for the first, 0.327 ± 0.04 for the second.

Going from TCATC to TCATA, the ligation selection enrichment rises from 0.166 ± 0.002 to 0.274 ± 0.026.

First: TCATG
Second: GATTA
The ligation selection enrichment of the first is lower: 0.1699 ± 0.0013 for the first, 0.278 ± 0.094 for the second.

First: GATTT
Second: GATTC
The ligation selection enrichment of the first is higher: 0.577 ± 0.15 for the first, 0.183 ± 0.0076 for the second.

First: GATTG
Second: GCCTC
The ligation selection enrichment of the first is higher: 1.47 ± 0.2 for the first, 0.114 ± 0.0038 for the second.

First: GCCTT
Second: GCCTG
The ligation selection enrichment of the first is lower: 0.162 ± 0.02 for the first, 0.624 ± 0.06 for the second.

GCCTA and TATTA are within error of each other in ligation selection enrichment: 0.198 ± 0.017 for the first, 0.197 ± 0.042 for the second.

First: TATTG
Second: TATTT
The ligation selection enrichment of the first is higher: 2.17 ± 0.33 for the first, 0.402 ± 0.22 for the second.

Compared with TATTC, TAGGG is higher in ligation selection enrichment: 0.186 ± 0.0052 for the first, 0.637 ± 0.12 for the second.

First: TAGGA
Second: TAGGT
The ligation selection enrichment of the first is higher: 0.998 ± 0.19 for the first, 0.115 ± 0.046 for the second.

Compared with TAGGC, GATCG is higher in ligation selection enrichment: 0.218 ± 0.0035 for the first, 0.78 ± 0.097 for the second.

Compared with GATCA, GATCT is lower in ligation selection enrichment: 0.464 ± 0.032 for the first, 0.306 ± 0.085 for the second.

Compared with GATCC, TCACC is lower in ligation selection enrichment: 0.276 ± 0.057 for the first, 0.159 ± 0.0071 for the second.

Compared with TCACA, TCACG is higher in ligation selection enrichment: 0.115 ± 0.057 for the first, 0.341 ± 0.018 for the second.

TCACT and CAGGC are within error of each other in ligation selection enrichment: 0.427 ± 0.28 for the first, 0.244 ± 0.12 for the second.

First: CAGGT
Second: CAGGG
The ligation selection enrichment of the first is lower: 0.108 ± 0.023 for the first, 0.186 ± 0.021 for the second.

Going from CAGGA to AATAG, the ligation selection enrichment rises from 0.231 ± 0.013 to 0.39 ± 0.091.

Going from AATAT to AATAC, the ligation selection enrichment falls from 0.299 ± 0.032 to 0.183 ± 0.0067.

AATAA and ACAAA are within error of each other in ligation selection enrichment: 0.179 ± 0.049 for the first, 0.227 ± 0.0041 for the second.

Compared with ACAAT, ACAAC is lower in ligation selection enrichment: 3.6 ± 0.37 for the first, 0.224 ± 0.024 for the second.

Going from ACAAG to GAGCA, the ligation selection enrichment falls from 0.442 ± 0.0085 to 0.241 ± 0.082.

Compared with GAGCC, GAGCG is higher in ligation selection enrichment: 0.172 ± 0.0044 for the first, 0.68 ± 0.023 for the second.

GAGCT and GCCGG are within error of each other in ligation selection enrichment: 0.597 ± 0.27 for the first, 0.313 ± 0.024 for the second.

Going from GCCGC to GCCGA, the ligation selection enrichment rises from 0.205 ± 0.036 to 1.35 ± 0.035.

First: GCCGT
Second: ACGCT
The ligation selection enrichment of the first is lower: 0.214 ± 0.082 for the first, 0.449 ± 0.15 for the second.

Compared with ACGCA, ACGCG is higher in ligation selection enrichment: 0.248 ± 0.016 for the first, 0.622 ± 0.021 for the second.

Compared with ACGCC, TCGCT is higher in ligation selection enrichment: 0.153 ± 0.035 for the first, 0.299 ± 0.075 for the second.

Going from TCGCC to TCGCG, the ligation selection enrichment rises from 0.155 ± 0.028 to 0.485 ± 0.036.

Compared with TCGCA, ACACA is lower in ligation selection enrichment: 0.269 ± 0.054 for the first, 0.134 ± 0.024 for the second.

First: ACACT
Second: ACACC
The ligation selection enrichment of the first is higher: 0.474 ± 0.18 for the first, 0.132 ± 0.0051 for the second.

ACACG and GACGG are within error of each other in ligation selection enrichment: 0.497 ± 0.035 for the first, 0.409 ± 0.066 for the second.

Going from GACGA to GACGT, the ligation selection enrichment falls from 1.29 ± 0.2 to 0.154 ± 0.063.

Compared with GACGC, AACTC is lower in ligation selection enrichment: 0.264 ± 0.024 for the first, 0.0963 ± 0.052 for the second.

AACTT and AACTA are the same in ligation selection enrichment: 0.165 ± 0.066 for the first, 0.165 ± 0.013 for the second.

Compared with AACTG, ACATG is lower in ligation selection enrichment: 0.506 ± 0.068 for the first, 0.333 ± 0.015 for the second.

ACATT and ACATA are within error of each other in ligation selection enrichment: 0.209 ± 0.099 for the first, 0.136 ± 0.019 for the second.

ACATC and CCCTA are within error of each other in ligation selection enrichment: 0.138 ± 0.056 for the first, 0.186 ± 0.0061 for the second.

Compared with CCCTC, CCCTG is higher in ligation selection enrichment: 0.14 ± 0.025 for the first, 0.425 ± 0.013 for the second.

First: CCCTT
Second: GCACG
The ligation selection enrichment of the first is lower: 0.213 ± 0.065 for the first, 0.521 ± 0.053 for the second.

Going from GCACC to GCACT, the ligation selection enrichment rises from 0.153 ± 0.024 to 0.555 ± 0.18.

Compared with GCACA, TCCCC is higher in ligation selection enrichment: 0.175 ± 0.0085 for the first, 0.279 ± 0.026 for the second.

Compared with TCCCA, TCCCG is higher in ligation selection enrichment: 0.209 ± 0.054 for the first, 0.46 ± 0.093 for the second.

Going from TCCCT to ACGAG, the ligation selection enrichment rises from 0.324 ± 0.076 to 0.745 ± 0.13.

Compared with ACGAA, ACGAT is higher in ligation selection enrichment: 0.734 ± 0.16 for the first, 16.5 ± 2.7 for the second.

First: ACGAC
Second: TATCG
The ligation selection enrichment of the first is higher: 1.41 ± 0.032 for the first, 0.999 ± 0.23 for the second.

TATCA and TATCC are within error of each other in ligation selection enrichment: 0.404 ± 0.031 for the first, 0.323 ± 0.051 for the second.

TATCT and CCAGA are within error of each other in ligation selection enrichment: 0.379 ± 0.13 for the first, 0.297 ± 0.02 for the second.

Compared with CCAGC, CCAGG is higher in ligation selection enrichment: 0.108 ± 0.022 for the first, 0.178 ± 0.009 for the second.

First: CCAGT
Second: GCCAA
The ligation selection enrichment of the first is lower: 0.107 ± 0.041 for the first, 0.222 ± 0.045 for the second.

First: GCCAT
Second: GCCAC
The ligation selection enrichment of the first is higher: 1.25 ± 0.34 for the first, 0.176 ± 0.031 for the second.

GCCAG and ACCCT are within error of each other in ligation selection enrichment: 0.28 ± 0.021 for the first, 0.379 ± 0.15 for the second.

Compared with ACCCC, ACCCA is lower in ligation selection enrichment: 0.194 ± 0.0053 for the first, 0.152 ± 0.013 for the second.

Variant ACCCG has a ligation selection enrichment of 0.752 ± 0.054.
